Results from patent US20230330253A1 (LANOVA MEDICINES, published 2023).

biological target: human claudin 18.2 (CLDN18.2) (human); assay: cell-based or functional assay

Binder | Fluorescence, pHAb internalization on MKN45-CLDN18.2 cells, 20 nM antibody, normalized by DAR | Fluorescence, pHAb internalization on MKN45-CLDN18.2 cells, 100 nM antibody, normalized by DAR
65G8B8 chimeric antibody (antibody, V domains shown) VH: QVQLKESGPGLVAPSQSLSITCTVSGFSLTSYGVSWVRQPPGKGLEWLGVIWGDGNTIYHSALKSRLSISRDNSKRQVFLKVNSLQIDDTATYYCAKQGLYGHAMDYWGQGTSVIVSS VL: DIMMTQSPSSLTVTTGEKVTLTCKSSQSLLNSGNLKNYLTWYQQKPGHPPKLLIYWASTRESGVPVRFTGSGSGTDFTLTISSVQAEDLTVYYCQNVYIYPFTFGSGTKLEMR | 15100 | 20500
44F6B11 chimeric antibody (antibody, V domains shown) VH: EVQLVESGGDLVKPGGSLKLSCAASGFTFSNYGMSWVRQTPDKRLEWVATFSYGDSHNYYSDSVKGRFTISRDIAKDALYLQMSSLRSEDTAIYYCARFGRGNTMDYWGQGTSVTVSL VL: DIVMTQSPSSLTVTAGEKVIMSCKSNQSLLNSGNQKKYLTWYQQKPGQSPKLLIYWASTRESGVPDRFTGSESGTDFTLTISSVRAEDLAVYYCQNGYSYPFTFGSGTKLEMK | 18400 | 26100
56E8F10F4 chimeric antibody (antibody, V domains shown) VH: DVQLVESGGGLVQPGGSRKLSCTASGFTFNSFGMNWVRQAPEKGLEWVAFISGGSNTIHYLDTVKGRFTISRDNPKNTLFLQMTSLRSEDTAMYYCTRLALGNAMDYWGQGTSVIVSS VL: DIVMTQSPSSLTVTAGEKVTMSCKSSQSLLNSGNQKNYLTWYQQKPGQPPKLLIYWASTRESGVPDRFTGSGSGTYFTLTISSVQAADLAVYYCQNDYYFPFTFGSGTKLEIK | 19900 | 28700
58G2C2 chimeric antibody (antibody, V domains shown) VH: QVHLQQSGAEVVRPGTSVKVSCKASGYAFTNYLIEWIKKRPGQGLEWVGVINPGRSGTNYNEKFKGKATLTADKSSSTAYMQLSSLTSDDSAVYFCARTRYGGNAMDYWGQGTSVTVSS VL: DIVMTQSPSSLTVTAGEKVTMSCKSSQSLLNSGNQKNYLTWYQQKPGQPPTLLIFWAFTRESGVPDRFTGSGSGTDFTLTINSVQAEDLAVYYCQNSYSYPFTFGSGTKLEIK | 18600 | 33100
15C2B7 chimeric antibody (antibody, V domains shown) VH: QIQLVQSGPELRKPGETVKISCKASGYTFTNYGMNWVKQAPGKGLKWMAWINANTGEPTYAEEFKGRFAFSLETSARSAYLQINSLKNEDTATYFCARLTRGNSFDYWGQGTTLTVSS VL: DIVMTQSPSSLTVTAGGKVTVSCKSSQSLLNSGNQKNYLTWYQQKPGQPPKLLIYWASTRESGVPDRFTGSGSGTDFTLTISSVQTEDLAVYYCQNNYYFPLTFGAGTKLELK | 19400 | 33200
20F1E10 chimeric antibody (antibody, V domains shown) VH: QIQLVQSGPELKKPGETVKISCKASGYTFTKYGMNWVRQAPGKGLKWMGWISTNTGEPTYAEEFKGRFAFSLETSASTAFLQINNLKNEDTATYFCARLVRGNSFDFWGQGITLTVSS VL: DIVMTQSPSSLTVTAGEKVTMSCKSSQSLFNSGNQRNYLTWYQQKPGQPPKLLIYWASTRESGVPDRFTGSGSGTDFILTITKVQAEDLAVYYCQNVYSYPLTFGAGTKLELK | 21100 | 45100
101C4F12 chimeric antibody (antibody, V domains shown) VH: QVQLKESGPGQVAPSQSLSIACTVSGFSLSSYGVHWVRQPPGKGLEWLGVIWAGGSTNYDSALMSRLTISKDNSRTRVFLKMNSLQTDDTAIYYCARSLYGNSLDSWGPGTTLTVSS VL: DIVMTQSPSSLTVTAGEKVTMSCKSSQSLLNSGNQRNYLTWYQQKPGQPPRLLIYWSSTRDSGVPDRFTGSGSRTDFTLTISSVQAEDLAVYYCQNNFIYPLTFGAGTKLELK | 15200 | 44400
